We go through 11 substances from paper PMC9067469.

What all share (assay): SPR
On the technique in general: SPR reads the build-up and loss of mass on a sensor chip optically.

The target in assay [1] is V3 (human IgG1 Fc variant G236N/H268D/A330K of the pH-dependent anti-latent myostatin antibody) (human).
The target in assay [2] is IgG1 (pH-dependent anti-latent myostatin antibody with wild-type human IgG1 constant region) (human).
The target in assay [3] is V3-pI(A)-N434A (human IgG1 Fc variant G236N/H268D/Q311R/A330K/D413K/N434A of the pH-dependent anti-l (human)).
In assay [4] the target is V2 (human IgG1 Fc variant G236N/H268D of an anti-latent myostatin antibody) (human).
In assay [5] the target is V3-N434A (human IgG1 Fc variant G236N/H268D/A330K/N434A of the pH-dependent anti-latent myostatin antibody) (human).
In assay [6] the target is V1 (human IgG1 Fc variant G236N of an anti-latent myostatin antibody) (human).

On to “cynomolgus FcγRIIa3, extracellular region (receptor)”, for which the relative binding per units (IgG1 = 1) (relative to IgG1) in assay [1] came to 2.77; in assay [2], 1; in assay [3], 2.76; in assay [4], 2.36.
Take “human FcγRIIIa(F), extracellular region (from UniProt P08637 17-208) (receptor)”: the relative binding per units (IgG1 = 1) (relative to IgG1) in assay [2] came out at 1.
On to “cynomolgus FcγRIa, extracellular region (receptor)”, for which the relative binding per units (IgG1 = 1) (relative to IgG1) turned out to be 1 in assay [2] and 0.71 in assay [3].
In assay [2], “cynomolgus FcγRIIIa(R), extracellular region (from UniProt Q8SPW2 17-208) (receptor)” displayed a relative binding per units (IgG1 = 1) (relative to IgG1) of 1.
As usually defined, the Kd is the equilibrium constant for the complex coming apart. A higher Kd goes with weaker binding. On to “cynomolgus FcRn (from UniProt Q8SPV9 24-365) (receptor)”, for which the results for the Kd in assay [2], in assay [3] and in assay [5] were 1520 nM, 355 nM and 526 nM, respectively.
“cynomolgus FcγRIIb, extracellular region (receptor)”: the relative binding per units (IgG1 = 1) (relative to IgG1) worked out at 1 in assay [2] and 2.83 in assay [3].
Take “cynomolgus FcγRIIa2, extracellular region (receptor)”: the relative binding per units (IgG1 = 1) (relative to IgG1) in assay [1] was determined as 2.56; in assay [2], 1; in assay [3], 2.52; in assay [4], 1.89.
As for “human FcγRIa, extracellular region (from UniProt P12314 16-292) (receptor)”, the relative binding per units (IgG1 = 1) (relative to IgG1) in assay [6] is 0.16.
As for “cynomolgus FcγRIIIa(S), extracellular region (from UniProt Q8SPW2 17-208) (receptor)”, the relative binding per units (IgG1 = 1) (relative to IgG1) in assay [2] was 1.
For “human FcγRIIIa(V), extracellular region (from UniProt P08637 17-208) (receptor)”, the relative binding per units (IgG1 = 1) (relative to IgG1) in assay [2] was 1.
As for “cynomolgus FcγRIIa1, extracellular region (receptor)”, the relative binding per units (IgG1 = 1) (relative to IgG1) in assay [1] came to 2; in assay [2], 1; in assay [3], 1.97; in assay [4] it was 1.45.
